Measurements as given in patent US20250092135A1 (NANJING LEADS BIOLABS, published 2025).
Residue numbers refer to the chain shown, from its start.

B1: chimeric antibody 4B9E9 (antibody, human IgG1, kappa, V domains shown)
VH: DVQLVESGGGLVQPRGSRKLSCAASGFTFSSFGMHWVRQAPEKGLEWVAYISSDSNTIYYADTVQGRFTISRDNPKNTLFLQMTRLRSEDTAMYYCARNPWYFDVWGAGTTVTVSS
VL: DVLMTQTPLSLPVSLGDQVSISCRSSQSIVHSNGNTYLEWFLQKPGQSPKLLIYKVSNRFSGVPDRFSGSGSGTDFTLKISRVEAEDLGIYYCFQGSHIPPTFGGGTKLEIKR
notes: Murine variable regions on human IgG1 and kappa constant regions
B2: humanized anti-GPRC5D antibody 29H2 (antibody, human IgG1, kappa, V domains shown)
VH: QVQLVQSGAEVKKPGASVKVSCKASGYTFTTHYMYWVRQAPGQGLEWMGGINPSNGATNFNEKFKTRVTLTVDKSTSTAYMELSSLRSEDTAVYYCTRVGGLSYTMDYWGQGTLVTVSS
VL: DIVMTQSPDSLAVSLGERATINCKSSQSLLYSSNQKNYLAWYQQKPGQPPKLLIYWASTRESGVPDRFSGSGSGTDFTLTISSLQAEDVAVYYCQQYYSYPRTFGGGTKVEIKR
notes: Human IgG1 / kappa
B3: humanized anti-GPRC5D antibody 29H6 (antibody, human IgG1, kappa, V domains shown)
VH: B2 VH with M48I, R67K, V68A
VL: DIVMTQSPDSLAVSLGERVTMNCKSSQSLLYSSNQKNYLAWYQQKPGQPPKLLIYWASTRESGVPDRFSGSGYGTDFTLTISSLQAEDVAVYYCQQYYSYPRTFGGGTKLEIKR
notes: Human IgG1 / kappa
B4: humanized anti-GPRC5D antibody 29H21 (antibody, human IgG1, kappa, V domains shown)
VH: B2 VH with M48I, T76I, S85R, E89D
VL: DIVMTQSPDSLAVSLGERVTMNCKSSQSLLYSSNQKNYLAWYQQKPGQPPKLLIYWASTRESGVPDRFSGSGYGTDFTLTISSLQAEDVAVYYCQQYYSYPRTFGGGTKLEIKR
notes: Human IgG1 / kappa
B5: humanized anti-GPRC5D antibody 29H24 (antibody, human IgG1, kappa, V domains shown)
VH: B2 VH with R38K, M48I, R67K, V68A, T76I, S85R, E89D
VL: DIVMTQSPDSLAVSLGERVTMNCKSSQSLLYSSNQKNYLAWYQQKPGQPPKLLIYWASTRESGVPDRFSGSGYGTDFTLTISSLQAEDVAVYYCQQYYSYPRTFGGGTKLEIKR
notes: Human IgG1 / kappa
B6: humanized anti-GPRC5D antibody 29H20 (antibody, human IgG1, kappa, V domains shown)
VH: B2 VH with M48I, T76I, S85R, E89D
VL: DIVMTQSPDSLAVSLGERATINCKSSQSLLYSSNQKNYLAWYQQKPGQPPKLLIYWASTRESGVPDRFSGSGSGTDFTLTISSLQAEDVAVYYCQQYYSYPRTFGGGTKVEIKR
notes: Human IgG1 / kappa
B7: anti-CD3/GPRC5D bispecific antibody Bi-29H6/23L2 (bispecific antibody, human IgG1, kappa, L234A L235A)
heavy 1: QVQLVQSGAEVKKPGASVKVSCKASGYTFTTHYMYWVRQAPGQGLEWIGGINPSNGATNFNEKFKTKATLTVDKSTSTAYMELSSLRSEDTAVYYCTRVGGLSYTMDYWGQGTLVTVSSASTKGPSVFPLAPSSKSTSGGTAALGCLVKDYFPEPVTVSWNSGALTSGVHTFPAVLQSSGLYSLSSVVTVPSSSLGTQTYICNVNHKPSNTKVDKKVEPKSCDKTHTCPPCPAPEAAGGPSVFLFPPKPKDTLMISRTPEVTCVVVAVSHEDPEVKFNWYVDGVEVHNAKTKPREEQYNSTYRVVSVLTVLHQDWLNGKEYKCKVSNKALAAPIEKTISKAKGQPREPQVCTLPPSRDELTKNQVSLSCAVKGFYPSDIAVEWESNGQPENNYKTTPPVLDSDGSFFLVSKLTVDKSRWQQGNVFSCSVMHEALHNHYTQKSLSLSPGK
heavy 2: not shown
light: not shown
B8: anti-CD3/GPRC5D bispecific antibody Bi-29H6-2 (bispecific antibody, human IgG1, kappa, L234A L235A)
heavy 1: B7 heavy 1
heavy 2: not shown
light: not shown
B9: anti-CD3/GPRC5D bispecific antibody Bi-29H6GE/23L2 (bispecific antibody, human IgG1, kappa, L234A L235A)
heavy 1: B7 heavy 1 with G56E
heavy 2: not shown
light: not shown
B10: anti-CD3/GPRC5D bispecific antibody Bi-29H6-5 (bispecific antibody, human IgG1, kappa, L234A L235A)
heavy 1: B7 heavy 1 with N55S
heavy 2: not shown
light: not shown
B11: chimeric antibody 39A9F1 (antibody, human IgG1, kappa, V domains shown)
VH: QVQLQQPGAELVKPGSSVKLSCKASGYTFTTYWMEWVKQRPGQGLEWIGEINPNNGRSNYNEKFQTKATLTVDKSSSTAYMQFSSLTSEDSAVYYCARERAGLTYWGQGTLVIVSA
VL: DVVMTQTPLSLPVSLGDQASISCRSSQSLVHSNGNTYLHWYLQKPGQSPKLLIYKVSNRFSGVPDRFGGSGSGTDFTLKISRVEAEDLGVYFCSQSTHFPYTFGGGTKLEIKR
notes: as for B1
B12: anti-CD3/GPRC5D bispecific antibody Bi-29H6-1 (bispecific antibody)
chain: EPKSSDKTHTCPPCPAPEAAGGPSVFLFPPKPKDTLMISRTPEVTCVVVAVSHEDPEVKFNWYVDGVEVHNAKTKPREEQYNSTYRVVSVLTVLHQDWLNGKEYKCKVSNKALAAPIEKTISKAKGQPREPQVCTLPPSRDELTKNQVSLSCAVKGFYPSDIAVEWESNGQPENNYKTTPPVLDSDGSFFLVSKLTVDKSRWQQGNVFSCSVMHEALHNHYTQKSLSLSPGK
heavy: not shown
light: not shown
B13: anti-CD3/GPRC5D bispecific antibody Bi-29H6-3 (bispecific antibody)
chain: B12 chain
heavy: not shown
light: not shown
B14: chimeric antibody 29H12C9 (antibody, human IgG1, kappa, V domains shown)
VH: QVQLQQPGAELVKPGASVKLSCKASGYTFTTHYMYWVKQRPGQGLEWIGGINPSNGATNFNEKFKTKATLTVDKSSSTAYMQLSSLTSEDSAVYYCTRVGGLSYTMDYWGQGTSVTVSS
VL: DIVMSQSPSSLAVSVGEKVSMSCKSSQSLLYSSNQKNYLAWYQQKPGQSPKLLIYWASTRESGVPDRFTGSGYGTDFTLTISSMKAEDLAVYYCQQYYSYPRTFGGGTKLDIKR
notes: also called murine chimeric antibody 29H12C9; murine control antibody (29H12C9)

Key:
[1] = biological target: T1, cynomolgus monkey GPRC5D protein (cynomolgus monkey, UniProt Q9NZD1 1-343 (human entry)); assay: flow cytometry, HEK293T-CynoGPRC5D cells (sheet: 293T-cynoGPRC5D), PE anti-human IgG Fc secondary, MFI
T1 construct: also called CynoGPRC5D; on HEK293T-CynoGPRC5D cells
T1 chain: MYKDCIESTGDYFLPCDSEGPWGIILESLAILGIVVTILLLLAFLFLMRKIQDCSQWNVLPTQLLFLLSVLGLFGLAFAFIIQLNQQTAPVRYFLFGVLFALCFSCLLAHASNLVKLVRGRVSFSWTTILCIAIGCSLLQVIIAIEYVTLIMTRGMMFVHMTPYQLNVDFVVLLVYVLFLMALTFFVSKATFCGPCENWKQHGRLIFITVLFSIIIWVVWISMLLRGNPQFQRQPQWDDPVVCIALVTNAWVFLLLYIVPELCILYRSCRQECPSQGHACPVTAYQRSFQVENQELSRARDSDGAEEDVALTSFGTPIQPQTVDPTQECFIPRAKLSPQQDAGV
Experimental: (§1) Whether the anti-GPRC5D chimeric antibodies in the present invention could bind to the human GPRC5D protein or cynomolgus monkey GPRC5D protein stably expressed on the cell surface was determined by cell binding experiments.
(§2) The HEK293T-HuGPRC5D cell line and HEK293T-CynoGPRC5D shown in Table 2 were subjected to enzymatic digestion to obtain single cell suspensions of the two types of cells. The single cell suspensions were centrifuged at room temperature at 400×g, and then the media were discarded. The resulting cell pellets were washed once with PBS and then resuspended in the serially diluted anti-GPRC5D chimeric antibodies shown in Table 5 and the control antibody GC5B596 (at an initial concentration of 133.3 nM, 4-fold gradient dilution, 8 concentrations in total), and the cells were incubated at 4° C. for 30 min. The cells were washed once with PBS, and then fluorescent secondary antibody R-PE-conjugated AffiniPure Goat Anti-Human IgG, Fcγ Fragment Specific (Jackson ImmunoResearch, Cat #109-116-098) diluted in a 1:200 ratio was added. The cells were incubated in the dark at 4° C. for 30 min. The cells were washed twice with PBS and then resuspended, and finally, two-channel fluorescence signals were detected using a BD Accuri C5 (BD Bioscience) flow cytometer.

human GPRC5D protein [2] = biological target: T2, human GPRC5D protein (human, UniProt Q9NZD1 1-345); assay: flow cytometry, HEK293T-HuGPRC5D cells (sheet: 293T-huGPRC5D), PE anti-human IgG Fc secondary, MFI
T2 construct: NCI-H929 cells express it endogenously in the functional assays; also called HuGPRC5D; huGPRC5D
Experimental: as §1, §2

human GPRC5D protein [3] = biological target: T2, human GPRC5D protein; assay: as above; remark: listed apart in the source
Experimental: Whether the anti-GPRC5D humanized antibodies in the present invention could bind to the human GPRC5D protein stably expressed on the cell surface was determined by cell binding experiments. The HEK293T-HuGPRC5D cell line shown in Table 2 was subjected to enzymatic digestion to obtain a single cell suspension of the HEK293T-huGPRC5D cells. The single cell suspension was centrifuged at room temperature at 400×g, and then the medium was discarded. The cell pellet was washed once with PBS and then resuspended in the serially diluted anti-GPRC5D humanized antibodies and the murine chimeric antibody 29H12C9 (at an initial concentration of 166.67 nM, 4-fold gradient dilution, 8 concentration points in total), and the cells were incubated at 4° C. for 30 min. The cells were washed once with PBS, and then fluorescent secondary antibody R-PE-conjugated AffiniPure Goat Anti-Human IgG, Fcγ Fragment Specific (Jackson ImmunoResearch, Cat #109-116-098) diluted in a 1:200 ratio was added. The cells were incubated in the dark at 4° C. for 30 min. The cells were washed twice with PBS and then resuspended, and finally, two-channel fluorescence signals were detected using a Beckman Cytoflex flow cytometer.

human GPRC5D protein [4] = biological target: T2, human GPRC5D protein; assay: flow cytometry, HEK293T cells stably expressing human GPRC5D (sheet: 293T-huGPRC5D), PE anti-human IgG Fc secondary, MFI
Experimental: (2) Whether the anti-CD3/anti-GPRC5D bispecific antibodies in the present invention could bind to HEK293T cells stably expressing the human GPRC5D protein was determined by cell binding experiments. […] The plate was centrifuged at room temperature at 400×g, and then the supernatant was discarded. The cells were washed twice with PBS and centrifuged. The supernatant was discarded. The cell pellet was resuspended in fluorescent secondary antibody R-PE-conjugated AffiniPure Goat Anti-Human IgG, Fcγ Fragment Specific (Jackson ImmunoResearch, Cat #109-116-098) diluted in a 1:200 ratio. The cells were incubated in the dark at 4° C. for 30 min. The cells were washed twice with PBS, and 100 μL of PBS was added to each well to resuspend the cells. Fluorescence signals were detected using a Beckman Cytoflex flow cytometer.

T2 sequence (Q9NZD1 whole entry): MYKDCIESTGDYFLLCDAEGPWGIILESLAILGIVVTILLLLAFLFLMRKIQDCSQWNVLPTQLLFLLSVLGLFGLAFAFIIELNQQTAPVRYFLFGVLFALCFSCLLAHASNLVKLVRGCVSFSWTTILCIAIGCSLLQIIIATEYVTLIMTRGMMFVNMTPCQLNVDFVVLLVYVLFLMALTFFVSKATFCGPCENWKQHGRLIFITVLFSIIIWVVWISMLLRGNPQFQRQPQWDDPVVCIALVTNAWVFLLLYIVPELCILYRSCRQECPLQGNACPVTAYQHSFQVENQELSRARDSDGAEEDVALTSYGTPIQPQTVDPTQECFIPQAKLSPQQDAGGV

| Binder | binding result (human GPRC5D protein [3]) | EC50 (read off the curve) (human GPRC5D protein [4]) | further results |
| --- | --- | --- | --- |
| B1 |  |  | binding result [1]: binds; EC50 (read off the curve) (human GPRC5D protein [2]): ~3 nM |
| B2 | binds |  |  |
| B3 | binds |  |  |
| B4 | binds |  |  |
| B5 | binds |  |  |
| B6 | binds |  |  |
| B7 |  | ~3 nM |  |
| B8 |  | ~2 nM |  |
| B9 |  | ~3 nM |  |
| B10 |  |  | binding result (human GPRC5D protein [4]): binds |
| B11 |  |  | EC50 (read off the curve) [1]: ~4 nM; EC50 (read off the curve) (human GPRC5D protein [2]): ~3 nM |
| B12 |  | ~6 nM |  |
| B13 |  | ~10 nM |  |
| B14 |  |  | EC50 (read off the curve) [1]: ~3 nM; EC50 (read off the curve) (human GPRC5D protein [2]): ~3 nM |
